From the Human Domainome abundance scans (Beltran et al. 2025)
± gives the uncertainty stated by the source.

B1: PDZ and LIM domain protein 2, residues 284 to 339; numbered along this chain, Q96JY6 (parent)
chain: HTCEKCSTSIANQAVRIQEGRYRHPGCYTCADCGLNLKMRGHFWVGDELYCEKHAR

Variants of: B1
Assay: abundance fitness (aPCA) (normalised: wild type 0, dead -1); higher = more abundant; growth selection in yeast, the domain comes from the species named
Conditions: Homo sapiens

Variant	abundance fitness
A14G	-0.254 ± 0.089
A14Q	-0.329 ± 0.12
A14Y	-0.209 ± 0.22
A14T	-0.468 ± 0.11
A14V	-0.208 ± 0.092
A14S	-0.179 ± 0.079
A14D	-0.33 ± 0.2
A14E	0.143 ± 0.084
A14N	-0.023 ± 0.12
A14H	-0.247 ± 0.24
A14I	-0.07 ± 0.099
A14F	0.188 ± 0.14
A14C	-0.139 ± 0.18
A14W	-0.182 ± 0.12
A14R	-0.466 ± 0.071
A14K	-0.417 ± 0.093
G20Y	-0.174 ± 0.082
G20E	-0.209 ± 0.15
G20W	-0.497 ± 0.12
G20H	-0.119 ± 0.067
G20C	-0.339 ± 0.071
G20R	-0.136 ± 0.063
G20V	-0.363 ± 0.069
G20L	-0.452 ± 0.087

Variant	abundance fitness
G20T	-0.129 ± 0.069
G20I	-0.257 ± 0.091
G20K	-0.023 ± 0.17
G20M	-0.154 ± 0.068
G20N	0.006 ± 0.081
G20Q	-0.56 ± 0.22
G20P	-0.63 ± 0.13
G20S	-0.29 ± 0.087
G20F	0.116 ± 0.12
G20A	-0.251 ± 0.11
R16A	0.2 ± 0.083
R16I	0.172 ± 0.13
R16W	0.298 ± 0.12
R16C	0.32 ± 0.091
R16K	0.223 ± 0.14
R16T	0.137 ± 0.11
R16N	0.191 ± 0.14
R16Y	0.029 ± 0.11
R16P	0.209 ± 0.082
R16F	0.215 ± 0.11
R16Q	0.308 ± 0.14
R16M	0.2 ± 0.1
R16H	0.004 ± 0.17
R16D	-0.091 ± 0.1

Variant	abundance fitness
R16S	0.112 ± 0.098
R16L	0.168 ± 0.06
R16E	0.037 ± 0.091
R16V	0.146 ± 0.06
R16G	-0.015 ± 0.06
T29N	-0.177 ± 0.15
T29S	-0.092 ± 0.081
T29V	-0.309 ± 0.076
T29W	-0.758 ± 0.12
T29F	-0.194 ± 0.18
T29M	-0.354 ± 0.16
T29I	-0.004 ± 0.1
T29E	-0.455 ± 0.15
T29L	-0.117 ± 0.081
T29R	-0.261 ± 0.057
T29Y	-0.17 ± 0.065
T29H	-0.041 ± 0.09
T29D	0.216 ± 0.14
T29C	-0.23 ± 0.064
T29P	-0.767 ± 0.28
T29G	-0.198 ± 0.067
T29A	-0.103 ± 0.11
R21V	0.11 ± 0.099
R21M	0.035 ± 0.12

Variant	abundance fitness
R21H	-0.015 ± 0.055
R21L	-0.01 ± 0.067
R21I	-0.046 ± 0.14
R21F	-0.01 ± 0.14
R21A	0.015 ± 0.071
R21G	-0.251 ± 0.058
R21Y	-0.008 ± 0.11
R21D	-0.217 ± 0.15
R21E	-0.286 ± 0.14
R21T	0.151 ± 0.12
R21K	0.002 ± 0.077
R21C	-0.069 ± 0.12
R21S	-0.02 ± 0.066
R21N	-0.259 ± 0.18
R21P	-0.101 ± 0.11
Y22A	-0.269 ± 0.09
Y22C	-0.348 ± 0.12
Y22Q	-0.02 ± 0.076
Y22M	-0.532 ± 0.13
Y22G	-0.411 ± 0.08
Y22H	-0.398 ± 0.22
Y22S	-0.292 ± 0.053
Y22T	-0.477 ± 0.11
Y22I	-0.691 ± 0.23

Variant	abundance fitness
Y22K	-0.311 ± 0.14
Y22V	-0.321 ± 0.066
Y22L	-0.349 ± 0.087
Y22P	-0.496 ± 0.14
Y22W	-0.014 ± 0.11
Y22R	-0.333 ± 0.094
Y22F	0.108 ± 0.076
Y22N	-0.32 ± 0.1
E19G	-0.375 ± 0.1
E19F	-0.672 ± 0.18
E19C	-0.447 ± 0.1
E19T	-0.068 ± 0.14
E19R	-0.12 ± 0.064
E19M	-0.163 ± 0.13
E19H	-0.292 ± 0.15
E19W	-0.624 ± 0.19
E19Y	-0.549 ± 0.089
E19Q	-0.071 ± 0.13
E19D	-0.374 ± 0.14
E19L	-0.237 ± 0.064
E19N	-0.453 ± 0.18
E19K	0.01 ± 0.07
E19V	-0.495 ± 0.093
E19S	-0.197 ± 0.098

Variant	abundance fitness
E19P	-0.211 ± 0.11
E19A	-0.165 ± 0.061
I17C	-0.453 ± 0.098
I17G	-0.239 ± 0.083
I17D	-0.232 ± 0.3
I17M	-0.372 ± 0.072
I17W	-0.533 ± 0.13
I17P	-0.336 ± 0.062
I17L	-0.121 ± 0.076
I17E	-0.325 ± 0.11
I17T	-0.311 ± 0.079
I17Q	-0.535 ± 0.14
I17V	-0.106 ± 0.099
I17H	-0.781 ± 0.13
I17Y	-0.437 ± 0.18
I17K	-0.427 ± 0.09
I17A	-0.341 ± 0.1
I17R	-0.599 ± 0.074
V15H	-0.099 ± 0.19
V15K	0.052 ± 0.13
V15W	-0.875 ± 0.17
V15T	-0.018 ± 0.063
V15C	-0.317 ± 0.15
V15Q	-0.115 ± 0.1

Variant	abundance fitness
V15G	-0.33 ± 0.06
V15L	-0.248 ± 0.072
V15F	-0.38 ± 0.21
V15Y	-0.499 ± 0.22
V15I	-0.105 ± 0.16
V15E	0.272 ± 0.13
V15A	-0.625 ± 0.16
V15M	-0.283 ± 0.12
V15D	-0.115 ± 0.11
V15P	-0.654 ± 0.14
V15R	-0.596 ± 0.12
V15S	-0.231 ± 0.069
P25I	-0.033 ± 0.062
P25Y	-0.414 ± 0.27
P25F	-0.492 ± 0.1
P25M	0.075 ± 0.085
P25N	-0.152 ± 0.14
P25G	-0.053 ± 0.091
P25D	0.323 ± 0.075
P25E	0.402 ± 0.082
P25Q	0.035 ± 0.083
P25K	-0.003 ± 0.092
P25A	0.113 ± 0.093
